Data as given in article PMC3489907, “The Human Homolog of Escherichia coli Endonuclease V Is a Nucleolar Protein with Affinity for Branched DNA Structures”.

Biological target: T1, ENDOV WT (human endonuclease V, exon 10 isoform) (Homo sapiens, UniProt Q8N8Q3 1-282)
T1 sequence: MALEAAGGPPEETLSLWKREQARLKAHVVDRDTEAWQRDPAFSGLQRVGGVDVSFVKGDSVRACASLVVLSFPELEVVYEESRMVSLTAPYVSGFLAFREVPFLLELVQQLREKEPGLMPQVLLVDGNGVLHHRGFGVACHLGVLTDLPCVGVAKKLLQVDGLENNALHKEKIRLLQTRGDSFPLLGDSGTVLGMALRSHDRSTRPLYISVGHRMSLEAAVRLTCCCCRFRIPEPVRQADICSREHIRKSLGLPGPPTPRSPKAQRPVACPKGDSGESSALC
Assay: EMSA; 5 mM Ca2+; EMSA: 10 fmol DNA in 10 µl, 5 ng pQE31 competitor DNA, 5 mM CaCl2, 10 mM HEPES-KOH pH 7.4, 1 mM DTT, 20% glycerol, 4°C 15 min; 10% native PAGE with 5 mM CaCl2 on ice; ENDOV 1.6-6.4 pmol, E. coli endoV 2-8 pmol
Settings: protein: recombinant, tags: none (His6-MBP removed with TEV)

B1: 5'-flap (10+12+13*) (structured_DNA)
DNA 1: GGATACGTAACAACGCTTATGCATCGCCGCCGCTACATCCCTGAGCTGAC
DNA 2: GTCAGCTCAGGGATGTAGCGGCGG
DNA 3: TGTGTTCGATCTCGATCAGAATGACGATGCATAAGCGTTGTTACGTATCC
Does B1 bind (label: 5'-32P on strand 3, 5'-flap, 1:2 1:3, 5' part of strand 3 unpaired (24 nt))?
Result: binds

B2: pseudo-Y (10*+13) (structured_DNA)
DNA 1: GGATACGTAACAACGCTTATGCATCGCCGCCGCTACATCCCTGAGCTGAC
DNA 2: TGTGTTCGATCTCGATCAGAATGACGATGCATAAGCGTTGTTACGTATCC
Does B2 bind (label: 5'-32P on strand 1, splayed duplex 1:2, 3' part of strand 1 and 5' part of strand 2 unpaired (24 nt each))?
Result: binds

B3: fork (10+11+14*+15) (structured_DNA)
DNA 1: GGATACGTAACAACGCTTATGCATCGCCGCCGCTACATCCCTGAGCTGAC
DNA 2: ATGCATAAGCGTTGTTACGTATCC
DNA 3: GTCAGCTCAGGGATGTAGCGGCGGAGTCATTCTGATCGAGATCGAACACA
DNA 4: TGTGTTCGATCTCGATCAGAATGA
Does B3 bind (label: 5'-32P on strand 3, fork 1:2 1:3 3:4)?
Result: binds

B4: 3-way junction (10*+13+14) (structured_DNA)
DNA 1: GGATACGTAACAACGCTTATGCATCGCCGCCGCTACATCCCTGAGCTGAC
DNA 2: TGTGTTCGATCTCGATCAGAATGACGATGCATAAGCGTTGTTACGTATCC
DNA 3: GTCAGCTCAGGGATGTAGCGGCGGAGTCATTCTGATCGAGATCGAACACA
Does B4 bind (label: 5'-32P on strand 1, three-way junction 1:2 1:3 2:3)?
Result: binds

B5: 3'-flap (10+11+14*) (structured_DNA)
DNA 1: GGATACGTAACAACGCTTATGCATCGCCGCCGCTACATCCCTGAGCTGAC
DNA 2: ATGCATAAGCGTTGTTACGTATCC
DNA 3: GTCAGCTCAGGGATGTAGCGGCGGAGTCATTCTGATCGAGATCGAACACA
Does B5 bind (label: 5'-32P on strand 3, 3'-flap, 1:2 1:3, 3' part of strand 3 unpaired)?
Result: binds

B6: Holliday junction (16+17*+18+19) (structured_DNA)
DNA 1: CCGCTACCAGTGATCACCAATGGATTGCTAGGACATCTTTGCCCACCTGCAGGTTCACCC
DNA 2: TGGGTGAACCTGCAGGTGGGCAAAGATGTCCTAGCAATCCATTGTCTATGACGTCAAGCT
DNA 3: GAGCTTGACGTCATAGACAATGGATTGCTAGGACATCTTTGCCGTCTTGTCAATATCGGC
DNA 4: TGCCGATATTGACAAGACGGCAAAGATGTCCTAGCAATCCATTGGTGATCACTGGTAGCGG
Does B6 bind (label: 5'-32P on strand 2, four-way junction 1:2 2:3 3:4 4:1)?
Result: binds
